{
  "source": "paper PMC5131300",
  "about": "“Discovery and structural characterisation of new fold type IV-transaminases exemplify the diversity of this enzyme fold” (Scientific Reports, 2016)",
  "target": "CpuTA1, fold type IV transaminase from Curtobacterium pusillum (Curtobacterium pusillum)",
  "assay": "crystal structure; CpuTA1 12 mg/mL with 5 mM PLP, co-crystallised with 10 mM 3-amino benzoic acid, 2.4 M sodium malonate pH 7.0, micro-seeding, 289 K; two chains in the asymmetric unit; interface analysed with PDBePISA",
  "data": [
    {"substance": "CpuTA1, fold type IV transaminase from Curtobacterium pusillum (enzyme)", "values": [
      {"measurement": "stoichiometry N", "value": 2}
    ]}
  ]
}
